{
  "source": "patent US9187567",
  "about": "(PARKINSON S INSTITUTE, dated 2015)",
  "binders": {"B1": {"name": "LiCOR Dyelight labelled 14-3-3 protein (recombinant, His tagged BMH1) (other, UniProt P29311 1-267, looked up)", "chain": "MSTSREDSVYLAKLAEQAERYEEMVENMKTVASSGQELSVEERNLLSVAYKNVIGARRASWRIVSSIEQKEESKEKSEHQVELICSYRSKIETELTKISDDILSVLDSHLIPSATTGESKVFYYKMKGDYHRYLAEFSSGDAREKATNASLEAYKTASEIATTELPPTHPIRLGLALNFSVFYYEIQNSPDKACHLAKQAFDDAIAELDTLSEESYKDSTLIMQLLRDNLTLWTSDMSESGQAEDQQQQQQHQQQQPPAAAEGEAPK", "modifications": "fluorescent dye label (LiCOR Dyelight)", "notes": "also called fluorescent dye labeled recombinant 14-3-3; not shown: His tag"}},
  "experiment_in_all_cases": "14-3-3 overlay (far-western) assay",
  "key": {"[1]": {"biological_target": "T1, GFP tagged, full length LRRK2 Ser910Ala (human, UniProt Q5S007 1-2527)", "T1 construct": "mature; also called S910A; not shown: GFP tag, amino-terminal", "T1 sequence (Q5S007 whole entry S910A)": "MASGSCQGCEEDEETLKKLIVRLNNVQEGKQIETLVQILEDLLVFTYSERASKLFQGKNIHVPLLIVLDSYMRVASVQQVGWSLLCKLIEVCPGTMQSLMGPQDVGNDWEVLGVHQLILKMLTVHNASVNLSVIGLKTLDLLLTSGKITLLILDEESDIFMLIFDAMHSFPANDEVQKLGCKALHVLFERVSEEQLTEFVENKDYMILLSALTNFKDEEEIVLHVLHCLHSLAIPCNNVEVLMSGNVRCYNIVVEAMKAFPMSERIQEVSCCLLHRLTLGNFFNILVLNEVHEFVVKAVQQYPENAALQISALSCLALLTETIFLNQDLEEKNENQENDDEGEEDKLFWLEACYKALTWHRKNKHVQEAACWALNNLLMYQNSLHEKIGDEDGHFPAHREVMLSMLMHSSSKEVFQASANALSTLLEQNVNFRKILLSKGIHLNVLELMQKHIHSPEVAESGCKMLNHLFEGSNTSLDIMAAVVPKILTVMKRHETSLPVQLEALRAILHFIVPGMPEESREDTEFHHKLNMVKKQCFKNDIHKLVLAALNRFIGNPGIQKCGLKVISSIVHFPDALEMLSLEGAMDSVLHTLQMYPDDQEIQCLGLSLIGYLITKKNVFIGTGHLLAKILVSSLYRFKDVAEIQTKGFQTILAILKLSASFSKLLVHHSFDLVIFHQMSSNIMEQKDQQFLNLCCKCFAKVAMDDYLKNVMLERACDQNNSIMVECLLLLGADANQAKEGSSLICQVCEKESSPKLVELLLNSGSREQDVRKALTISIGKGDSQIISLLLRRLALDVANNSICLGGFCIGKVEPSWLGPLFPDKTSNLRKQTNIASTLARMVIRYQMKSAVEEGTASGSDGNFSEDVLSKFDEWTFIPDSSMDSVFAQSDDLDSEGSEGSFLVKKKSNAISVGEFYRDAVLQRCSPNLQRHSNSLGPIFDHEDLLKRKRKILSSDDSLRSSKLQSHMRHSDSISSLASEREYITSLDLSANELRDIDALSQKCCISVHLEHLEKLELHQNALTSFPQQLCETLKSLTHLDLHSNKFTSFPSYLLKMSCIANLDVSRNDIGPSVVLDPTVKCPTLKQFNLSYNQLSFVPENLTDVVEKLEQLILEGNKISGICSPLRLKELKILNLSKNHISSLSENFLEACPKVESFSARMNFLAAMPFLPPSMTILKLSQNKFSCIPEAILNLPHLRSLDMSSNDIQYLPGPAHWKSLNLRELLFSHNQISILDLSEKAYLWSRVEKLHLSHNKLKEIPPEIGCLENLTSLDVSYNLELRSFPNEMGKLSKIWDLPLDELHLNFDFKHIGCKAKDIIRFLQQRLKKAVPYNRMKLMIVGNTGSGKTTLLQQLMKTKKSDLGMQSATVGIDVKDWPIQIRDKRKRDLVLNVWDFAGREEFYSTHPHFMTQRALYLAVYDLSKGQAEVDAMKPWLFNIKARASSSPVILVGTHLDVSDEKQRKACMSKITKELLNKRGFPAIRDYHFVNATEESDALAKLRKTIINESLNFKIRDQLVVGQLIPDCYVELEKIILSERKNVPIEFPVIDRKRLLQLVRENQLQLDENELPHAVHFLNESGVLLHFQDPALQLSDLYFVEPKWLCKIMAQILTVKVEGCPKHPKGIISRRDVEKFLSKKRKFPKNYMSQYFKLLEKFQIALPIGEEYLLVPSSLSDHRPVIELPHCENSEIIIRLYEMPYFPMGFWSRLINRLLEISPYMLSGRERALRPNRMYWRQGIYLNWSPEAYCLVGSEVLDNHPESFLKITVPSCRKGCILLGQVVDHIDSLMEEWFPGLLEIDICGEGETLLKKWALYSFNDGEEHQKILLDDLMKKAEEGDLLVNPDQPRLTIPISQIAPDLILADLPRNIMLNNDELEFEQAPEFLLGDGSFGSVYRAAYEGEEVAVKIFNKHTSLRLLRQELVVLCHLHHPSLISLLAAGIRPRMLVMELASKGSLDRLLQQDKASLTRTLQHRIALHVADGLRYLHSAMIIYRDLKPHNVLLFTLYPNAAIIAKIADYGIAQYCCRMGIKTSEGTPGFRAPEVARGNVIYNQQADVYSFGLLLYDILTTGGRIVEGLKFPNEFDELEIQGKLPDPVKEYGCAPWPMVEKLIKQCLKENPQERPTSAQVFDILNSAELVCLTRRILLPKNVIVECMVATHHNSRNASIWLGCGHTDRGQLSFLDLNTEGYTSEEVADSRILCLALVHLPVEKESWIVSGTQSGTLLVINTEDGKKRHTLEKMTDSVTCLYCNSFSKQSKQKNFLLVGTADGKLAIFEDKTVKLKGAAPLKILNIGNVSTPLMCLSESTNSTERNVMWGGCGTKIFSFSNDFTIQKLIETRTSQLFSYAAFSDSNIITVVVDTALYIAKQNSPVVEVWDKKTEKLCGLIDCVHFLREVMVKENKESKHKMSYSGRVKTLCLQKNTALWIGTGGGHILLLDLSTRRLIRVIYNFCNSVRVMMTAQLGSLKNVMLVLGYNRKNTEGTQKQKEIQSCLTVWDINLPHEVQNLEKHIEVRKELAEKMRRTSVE"}, "[2]": {"biological_target": "T2, GFP tagged, full length LRRK2 Ser973Ala (human, UniProt Q5S007 1-2527)", "T2 construct": "mature; also called S973A; GFP-LRRK2-S973A; not shown: GFP tag, amino-terminal", "T2 sequence (Q5S007 whole entry S973A)": "as the sequence (Q5S007 whole entry S910A) above, with A910S, S973A counted along it"}, "[3]": {"biological_target": "T3, GFP tagged, full length LRRK2 Ser955Ala (human, UniProt Q5S007 1-2527)", "T3 construct": "mature; also called S955A; GFP-LRRK2-S955A; not shown: GFP tag, amino-terminal", "T3 sequence (Q5S007 whole entry S955A)": "as the sequence (Q5S007 whole entry S910A) above, with A910S, S955A counted along it"}, "[4]": {"biological_target": "T4, GFP tagged, full length LRRK2 from cells treated with 1 µM LRRK2-IN1 for 90 minutes (human, UniProt Q5S007 1-2527, Serines 910, 935, 955 and 973 dephosphorylated by LRRK2-IN1 treatment of the cells)", "T4 construct": "mature; Same polypeptide as m10; It differs only in phosphorylation state; also called LRRK2-IN1 treated LRRK2; not shown: GFP tag, amino-terminal"}, "[5]": {"biological_target": "T5, GFP tagged, full length LRRK2 I2020T (human, UniProt Q5S007 1-2527)", "T5 construct": "mature; also called 12020T (so in the source); not shown: GFP tag, amino-terminal", "T5 sequence (Q5S007 whole entry I2020T)": "as the sequence (Q5S007 whole entry S910A) above, with A910S, I2020T counted along it"}, "[6]": {"biological_target": "T6, GFP tagged, full length LRRK2 Ser935Ala (human, UniProt Q5S007 1-2527)", "T6 construct": "mature; also called S935A; not shown: GFP tag, amino-terminal", "T6 sequence (Q5S007 whole entry S935A)": "as the sequence (Q5S007 whole entry S910A) above, with A910S, S935A counted along it"}},
  "data": [
    {"binder": "B1", "values": [
      {"measurement": "binding result", "setting": "[1]", "value": "no binding"},
      {"measurement": "binding result", "setting": "[2]", "value": "binds"},
      {"measurement": "binding result", "setting": "[3]", "value": "binds"},
      {"measurement": "binding result", "setting": "[4]", "value": "binds"},
      {"measurement": "binding result", "setting": "[5]", "value": "no binding"},
      {"measurement": "binding result", "setting": "[6]", "value": "no binding"}
    ]}
  ]
}
